Results taken from patent publication US20230183319A1.

How the values were obtained:
Assay in all cases: cell-based or functional assay
GDF8 = target: T1, GDF8 (UniProt O14793)
T1 sequence (looked up): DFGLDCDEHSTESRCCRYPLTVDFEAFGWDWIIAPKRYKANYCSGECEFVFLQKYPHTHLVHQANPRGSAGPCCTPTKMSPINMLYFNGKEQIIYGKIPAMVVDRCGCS

activin B = target: T2, activin B (UniProt P09529)
T2 sequence (looked up): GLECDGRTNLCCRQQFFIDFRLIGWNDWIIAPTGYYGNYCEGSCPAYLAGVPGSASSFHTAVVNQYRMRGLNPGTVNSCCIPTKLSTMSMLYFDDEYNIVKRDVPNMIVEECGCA

activin A = target: T3, activin A (UniProt P08476)
T3 sequence (looked up): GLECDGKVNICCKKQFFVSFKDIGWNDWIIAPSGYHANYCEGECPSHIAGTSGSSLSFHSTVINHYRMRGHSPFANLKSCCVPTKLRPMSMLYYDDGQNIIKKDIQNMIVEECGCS

BMP10 = target: T4, BMP10 (UniProt O95393)
T4 sequence (looked up): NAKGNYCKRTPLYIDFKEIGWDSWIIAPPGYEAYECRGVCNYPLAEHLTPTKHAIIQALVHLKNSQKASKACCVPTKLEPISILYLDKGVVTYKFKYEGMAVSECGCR

BMP9 = target: T5, BMP9 (UniProt Q9UK05)
T5 sequence (looked up): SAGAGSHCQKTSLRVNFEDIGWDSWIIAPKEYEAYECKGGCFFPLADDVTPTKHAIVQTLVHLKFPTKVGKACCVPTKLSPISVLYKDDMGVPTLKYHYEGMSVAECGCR

GDF11 = target: T6, GDF11 (UniProt O95390)
T6 sequence (looked up): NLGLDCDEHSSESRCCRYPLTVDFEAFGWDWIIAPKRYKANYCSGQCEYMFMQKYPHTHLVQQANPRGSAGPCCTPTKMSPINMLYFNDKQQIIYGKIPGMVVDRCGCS

Sequence of ActRIIB-G1Fc (SEQ ID NO: 5) (Fc fusion) (chain): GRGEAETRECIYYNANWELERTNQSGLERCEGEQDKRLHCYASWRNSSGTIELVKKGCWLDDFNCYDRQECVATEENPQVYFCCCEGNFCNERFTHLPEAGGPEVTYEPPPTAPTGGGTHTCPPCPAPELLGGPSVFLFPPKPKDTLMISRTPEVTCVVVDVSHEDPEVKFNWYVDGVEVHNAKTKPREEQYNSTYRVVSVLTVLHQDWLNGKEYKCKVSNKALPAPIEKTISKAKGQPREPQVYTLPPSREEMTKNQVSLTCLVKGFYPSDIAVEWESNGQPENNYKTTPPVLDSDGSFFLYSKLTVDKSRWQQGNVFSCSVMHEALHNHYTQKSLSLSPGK

| IC50 (ng/mL); A204 CAGA12 luciferase reporter (activin A) [ng/mL] | IC50 (ng/mL); A204 CAGA12 luciferase reporter (BMP9) [ng/mL] | IC50 (ng/mL); A204 CAGA12 luciferase reporter (GDF11) [ng/mL] | Substance | further results |
| --- | --- | --- | --- | --- |
| 8 | 31 | 9 | ActRIIB-G1Fc (SEQ ID NO: 5) (Fc fusion) | IC50 (nM); A204 CAGA12 luciferase reporter (GDF8): 0.95 nM; IC50 (nM); A204 CAGA12 luciferase reporter (activin B): 0.067 nM; IC50 (nM); A204 CAGA12 luciferase reporter (activin A): 0.05 nM; IC50 (nM); A204 CAGA12 luciferase reporter (BMP10): 0.036 nM; IC50 (nM); A204 CAGA12 luciferase reporter (BMP9): 1.82 nM; IC50 (nM); A204 CAGA12 luciferase reporter (GDF11): 0.12 nM |
| 198 | 359 | 71 | ActRIIB-Fc E52A (Fc fusion) | – |
| – | 40000 | 389 | ActRIIB(F82W, N83A)-G1Fc (Fc fusion) | – |
| – | 165 | 45 | ActRIIB-Fc K74R (Fc fusion) | – |
| – | – | 477 | ActRIIB(L79K)-G1Fc (Fc fusion) | – |
| 132 | 721 | 180 | ActRIIB-Fc E50K (Fc fusion) | – |
| – | – | – | ActRIIB(F82T)-G1Fc (Fc fusion) | IC50 (nM); A204 CAGA12 luciferase reporter (GDF8): 2.17 nM; IC50 (nM); A204 CAGA12 luciferase reporter (activin B): 0.09 nM; IC50 (nM); A204 CAGA12 luciferase reporter (activin A): 0.1 nM; IC50 (nM); A204 CAGA12 luciferase reporter (BMP10): 0.07 nM; IC50 (nM); A204 CAGA12 luciferase reporter (GDF11): 0.27 nM |
| 206 | 777 | 318 | ActRIIB-Fc K55R (Fc fusion) | – |
| – | – | 414 | ActRIIB-Fc Y60K (Fc fusion) | – |
| – | – | 234 | ActRIIB-Fc L79R (Fc fusion) | – |
| 762 | 10000 | 296 | ActRIIB-Fc E52K (Fc fusion) | – |
| 756 | 3000 | 638 | ActRIIB-Fc E50P (Fc fusion) | – |
| – | – | 276 | ActRIIB-Fc F82W (Fc fusion) | – |
| – | – | 544 | ActRIIB-Fc Y60P (Fc fusion) | – |
| 128 | 409 | 99 | ActRIIB-Fc A24N (Fc fusion) | – |
| 396 | 5500 | 365 | ActRIIB-Fc K55D (Fc fusion) | – |
| – | 1210 | 591 | ActRIIB-Fc R40A (Fc fusion) | – |
